CN111110862A
Where “and” joins values, the source holds several entries; their conditions need not be identical. Identical values can stand only once.

Key:
[1] = biological target: 鼠CLDN18.2(mCLDN18.2) (mouse) (UniProt P56857); experiment: cell ELISA on fixed mCLDN18.2+cell; background
[2] = biological target: 人CLDN18.2(hCLDN18.2) (human) (UniProt P56856); experiment: flow cytometry, CF633-labelled antibody 2.5μg/ml on hCLDN18.2+cell; background
[3] = biological target: 人CLDN18.2(hCLDN18.2) (human) (UniProt P56856); experiment: flow cytometry, CF488-labelled antibody 10μg/ml on hCLDN18.2+cell; range over the binding value and the time points
[4] = biological target: 人CLDN18.2(hCLDN18.2) (human) (UniProt P56856); experiment: flow cytometry, CF633-labelled antibody 10μg/ml on hCLDN18.2+cell; range over the binding value and the time points

Sequence of UniProt P56857 (P56857 other isoform, or with tags, fused parts or gaps, form in doubt): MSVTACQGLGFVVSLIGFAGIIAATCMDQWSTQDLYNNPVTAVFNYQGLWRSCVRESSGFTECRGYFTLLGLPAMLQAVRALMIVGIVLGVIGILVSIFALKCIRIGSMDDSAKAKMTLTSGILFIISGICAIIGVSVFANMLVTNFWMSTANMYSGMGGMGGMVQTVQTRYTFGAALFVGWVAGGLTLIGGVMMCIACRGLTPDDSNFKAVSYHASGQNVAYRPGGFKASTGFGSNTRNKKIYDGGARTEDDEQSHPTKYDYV

Neg IgG (和靶点没有结合的非特异性抗体) (antibody)
Emax [1]: 0.19 | 结合值 (FACS读值) [2]: 932 | 荧光强度值(本底) [3]: 1280 to 3480 | 荧光强度值(本底) [4]: 23.2 and 14.9
